# Measured values taken from patent US20040053425A1.
# Molecular target: human prostate-specific antigen (PSA) (human) (UniProt P07288)
# Test: cell-based or functional assay
# Chain of UniProt P07288 (P07288 25-261 limits assumed): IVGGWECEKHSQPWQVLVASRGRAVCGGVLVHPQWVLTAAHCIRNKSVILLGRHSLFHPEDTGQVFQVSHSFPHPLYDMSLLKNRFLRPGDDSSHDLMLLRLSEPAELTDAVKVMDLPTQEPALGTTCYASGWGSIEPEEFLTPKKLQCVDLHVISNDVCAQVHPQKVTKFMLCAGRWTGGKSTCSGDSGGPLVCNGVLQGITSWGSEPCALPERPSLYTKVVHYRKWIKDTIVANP
substance,measurement,value
anti-PSA monoclonal antibody clone ER-PR8,decrease in PSA enzymatic activity,46%
